Assay results taken from PMC9482650, “Quantitative fragmentomics allow affinity mapping of interactomes” (Nature Communications, 2022).

Key:
Experiment in all cases: holdup assay
Design in all cases: key: below the threshold = too weak to quantify, mostly under pKd 3.1 to 4
Settings in all cases: plain residues with an end cap or a label only (N-terminal biotin on a linker: ado-ado)
MAGI3_2, Q5TCQ9 = target: MAGI3_2, Q5TCQ9
DLG3_2, Q92796 = target: T1, DLG3_2, Q92796
T1 sequence (Q92796 221-321, limits assumed, looked up): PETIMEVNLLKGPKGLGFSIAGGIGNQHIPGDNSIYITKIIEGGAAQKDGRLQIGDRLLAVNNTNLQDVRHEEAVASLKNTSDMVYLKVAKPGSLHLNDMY

DLG1_3, Q12959 = target: DLG1_3, Q12959
DLG1_1, Q12959 = target: DLG1_1, Q12959
FRMPD3, Q5JV73 = target: FRMPD3, Q5JV73
Chain of FRMPD3, Q5JV73 (Q5JV73 12-100): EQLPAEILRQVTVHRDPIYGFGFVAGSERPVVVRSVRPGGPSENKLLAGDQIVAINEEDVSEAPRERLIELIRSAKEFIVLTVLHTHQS

GRASP, Q7Z6J2 = target: GRASP, Q7Z6J2
Chain of GRASP, Q7Z6J2 (Q7Z6J2 96-193): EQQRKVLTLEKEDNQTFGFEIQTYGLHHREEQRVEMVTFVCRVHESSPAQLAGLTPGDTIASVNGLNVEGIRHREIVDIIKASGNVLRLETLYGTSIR

DLG4_2, P78352 = target: DLG4_2, P78352
Chain of DLG4_2, P78352 (P78352 155-259): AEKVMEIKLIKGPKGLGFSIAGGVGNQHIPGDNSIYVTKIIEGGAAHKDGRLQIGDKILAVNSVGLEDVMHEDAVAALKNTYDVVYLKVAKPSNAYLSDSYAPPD

DLG4_3, P78352 = target: DLG4_3, P78352
Chain of DLG4_3, P78352 (P78352 306-403): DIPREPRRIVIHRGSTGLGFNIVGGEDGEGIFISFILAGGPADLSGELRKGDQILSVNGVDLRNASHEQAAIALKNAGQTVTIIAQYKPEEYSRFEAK

MAGI2_2, Q86UL8 = target: MAGI2_2, Q86UL8
Chain of MAGI2_2, Q86UL8 (Q86UL8 410-522): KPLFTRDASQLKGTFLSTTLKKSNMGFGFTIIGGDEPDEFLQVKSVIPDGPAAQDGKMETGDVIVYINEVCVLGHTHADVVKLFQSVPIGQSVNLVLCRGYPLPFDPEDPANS

DLG3_1, Q92796 = target: T2, DLG3_1, Q92796
T2 sequence (Q92796 125-227, limits assumed, looked up): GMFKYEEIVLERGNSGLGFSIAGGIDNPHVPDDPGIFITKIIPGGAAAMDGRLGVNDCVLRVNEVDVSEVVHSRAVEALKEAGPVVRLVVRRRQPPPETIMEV

SIPA1L2, Q9P2F8 = target: T3, SIPA1L2, Q9P2F8
T3 sequence (Q9P2F8 945-1036, limits assumed, looked up): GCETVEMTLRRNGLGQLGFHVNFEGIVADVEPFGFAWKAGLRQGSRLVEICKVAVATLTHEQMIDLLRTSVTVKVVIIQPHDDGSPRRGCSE

IL16_1, Q14005 = target: IL16_1, Q14005
Chain of IL16_1, Q14005 (Q14005 210-306): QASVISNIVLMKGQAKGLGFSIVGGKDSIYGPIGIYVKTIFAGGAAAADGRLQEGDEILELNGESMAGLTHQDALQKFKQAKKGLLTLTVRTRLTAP

RADIL, Q96JH8 = target: T4, RADIL, Q96JH8
T4 sequence (Q96JH8 971-1071, limits assumed, looked up): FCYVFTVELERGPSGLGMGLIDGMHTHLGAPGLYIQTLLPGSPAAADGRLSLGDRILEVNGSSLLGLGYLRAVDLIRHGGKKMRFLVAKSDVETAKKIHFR

GRIP1_5, Q9Y3R0 = target: T5, GRIP1_5, Q9Y3R0
T5 sequence (Q9Y3R0 568-668, limits assumed, looked up): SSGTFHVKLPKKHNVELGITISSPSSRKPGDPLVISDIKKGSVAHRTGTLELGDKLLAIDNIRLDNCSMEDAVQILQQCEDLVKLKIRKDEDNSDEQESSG

ARHGEF11, O15085 = target: T6, ARHGEF11, O15085
T6 sequence (O15085 42-136, limits assumed, looked up): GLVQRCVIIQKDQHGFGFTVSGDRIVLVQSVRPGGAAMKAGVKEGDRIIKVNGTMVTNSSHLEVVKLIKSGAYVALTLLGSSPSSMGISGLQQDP

SHANK1, Q9Y566 = target: T7, SHANK1, Q9Y566
T7 sequence (Q9Y566 658-767, limits assumed, looked up): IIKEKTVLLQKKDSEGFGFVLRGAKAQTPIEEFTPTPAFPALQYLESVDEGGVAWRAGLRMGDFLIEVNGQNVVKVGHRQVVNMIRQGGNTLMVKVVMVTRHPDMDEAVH

SCRIB_2, Q14160 = target: SCRIB_2, Q14160
Chain of SCRIB_2, Q14160 (Q14160 857-960): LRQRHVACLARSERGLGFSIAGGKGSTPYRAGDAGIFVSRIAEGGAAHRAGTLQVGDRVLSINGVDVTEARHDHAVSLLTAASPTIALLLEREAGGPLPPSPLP

LDB3, O75112 = target: LDB3, O75112
Chain of LDB3, O75112 (O75112 1-94): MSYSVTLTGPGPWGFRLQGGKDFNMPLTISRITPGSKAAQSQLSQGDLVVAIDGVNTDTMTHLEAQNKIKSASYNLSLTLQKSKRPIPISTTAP

PDLIM1, O00151 = target: PDLIM1, O00151
Chain of PDLIM1, O00151 (O00151 1-87): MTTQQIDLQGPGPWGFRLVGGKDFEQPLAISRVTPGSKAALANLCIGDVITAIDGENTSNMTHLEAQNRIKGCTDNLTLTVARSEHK

GOPC, Q9HD26 = target: GOPC, Q9HD26
LIN7A, O14910 = target: T8, LIN7A, O14910
T8 sequence (O14910 103-200, limits assumed, looked up): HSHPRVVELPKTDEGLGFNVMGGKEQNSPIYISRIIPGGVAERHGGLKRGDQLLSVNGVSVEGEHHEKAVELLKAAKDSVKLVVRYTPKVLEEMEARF

AHNAK1, Q09666 = target: AHNAK1, Q09666
Chain of AHNAK1, Q09666 (Q09666 4-100): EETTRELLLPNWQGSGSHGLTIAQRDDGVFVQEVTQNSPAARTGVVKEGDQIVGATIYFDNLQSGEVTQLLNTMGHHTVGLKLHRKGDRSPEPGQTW

SCRIB_3, Q14160 = target: SCRIB_3, Q14160
Chain of SCRIB_3, Q14160 (Q14160 999-1103): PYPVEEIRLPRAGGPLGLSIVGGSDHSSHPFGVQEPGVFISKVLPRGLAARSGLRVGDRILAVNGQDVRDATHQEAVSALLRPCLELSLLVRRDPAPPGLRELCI

TJP2_1, Q9UDY2 = target: TJP2_1, Q9UDY2
Chain of TJP2_1, Q9UDY2 (Q9UDY2 24-128): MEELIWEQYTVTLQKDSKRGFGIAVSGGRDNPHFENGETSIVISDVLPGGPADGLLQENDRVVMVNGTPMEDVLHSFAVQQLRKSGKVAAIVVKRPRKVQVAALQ

GORASP2, Q9H8Y8 = target: GORASP2, Q9H8Y8
TJP1_2, Q07157 = target: TJP1_2, Q07157
Chain of TJP1_2, Q07157 (Q07157 181-274): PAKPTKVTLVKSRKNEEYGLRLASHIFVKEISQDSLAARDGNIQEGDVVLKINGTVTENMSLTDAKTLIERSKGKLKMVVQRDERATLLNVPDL

MPP6, Q9NZW5 = target: T9, MPP6, Q9NZW5
T9 sequence (Q9NZW5 125-219, limits assumed, looked up): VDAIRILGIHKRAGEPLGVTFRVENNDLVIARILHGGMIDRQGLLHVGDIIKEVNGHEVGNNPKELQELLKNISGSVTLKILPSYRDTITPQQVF

MAGI1_2, Q96QZ7 = target: MAGI1_2, Q96QZ7
Chain of MAGI1_2, Q96QZ7 (Q96QZ7 456-580): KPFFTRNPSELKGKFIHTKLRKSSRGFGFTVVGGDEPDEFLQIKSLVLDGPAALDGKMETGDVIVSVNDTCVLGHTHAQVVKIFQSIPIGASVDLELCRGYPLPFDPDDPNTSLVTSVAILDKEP

Chain of MAGI3_2, Q5TCQ9 (Q5TCQ9 398-503): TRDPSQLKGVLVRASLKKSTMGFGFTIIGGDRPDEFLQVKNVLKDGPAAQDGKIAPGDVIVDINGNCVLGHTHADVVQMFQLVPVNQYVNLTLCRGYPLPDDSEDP

Binder	pKd (MAGI3_2, Q5TCQ9)	pKd (DLG3_2, Q92796)	pKd (DLG1_3, Q12959)	pKd (DLG1_1, Q12959)	pKd (FRMPD3, Q5JV73)	pKd (GRASP, Q7Z6J2)	pKd (DLG4_2, P78352)	pKd (DLG4_3, P78352)	pKd (MAGI2_2, Q86UL8)	pKd (DLG3_1, Q92796)	pKd (SIPA1L2, Q9P2F8)	pKd (IL16_1, Q14005)	pKd (RADIL, Q96JH8)	pKd (GRIP1_5, Q9Y3R0)	pKd (ARHGEF11, O15085)	pKd (SHANK1, Q9Y566)	pKd (SCRIB_2, Q14160)	pKd (LDB3, O75112)	pKd (PDLIM1, O00151)	pKd (GOPC, Q9HD26)	further results
TACCHSETVV [TGFA, P01135]	5.27	4.74	3.97	4.56	below the threshold	3.5	4.82	below the threshold	4.74	4.19	below the threshold	4.1	4.35	below the threshold	4.44	below the threshold	4.1	below the threshold	below the threshold	3.82	pKd (LIN7A, O14910): 3.51; pKd (AHNAK1, Q09666): below the threshold; pKd (SCRIB_3, Q14160): 4.14; pKd (TJP2_1, Q9UDY2): below the threshold; pKd (GORASP2, Q9H8Y8): 4.05; pKd (TJP1_2, Q07157): below the threshold; pKd (MPP6, Q9NZW5): below the threshold; pKd (MAGI1_2, Q96QZ7): 4.24
TSSMRGMDAV [RSRC2, Q7L4I2]	below the threshold	below the threshold	below the threshold	below the threshold	below the threshold	below the threshold	below the threshold	below the threshold	4.02	below the threshold	below the threshold	below the threshold	below the threshold	below the threshold	below the threshold	below the threshold	below the threshold	below the threshold	below the threshold	below the threshold	pKd (LIN7A, O14910): below the threshold; pKd (AHNAK1, Q09666): below the threshold; pKd (SCRIB_3, Q14160): below the threshold; pKd (TJP2_1, Q9UDY2): below the threshold; pKd (GORASP2, Q9H8Y8): below the threshold; pKd (TJP1_2, Q07157): below the threshold; pKd (MPP6, Q9NZW5): 3.79; pKd (MAGI1_2, Q96QZ7): below the threshold
TLPRKRMSSI [GPRC6A, Q5T6X5]	4.15	4.23	below the threshold	below the threshold	below the threshold	below the threshold	below the threshold	below the threshold	3.82	below the threshold	below the threshold	below the threshold	below the threshold	below the threshold	below the threshold	below the threshold	below the threshold	below the threshold	below the threshold	below the threshold	pKd (LIN7A, O14910): below the threshold; pKd (AHNAK1, Q09666): below the threshold; pKd (SCRIB_3, Q14160): 3.49; pKd (TJP2_1, Q9UDY2): below the threshold; pKd (GORASP2, Q9H8Y8): below the threshold; pKd (TJP1_2, Q07157): below the threshold; pKd (MPP6, Q9NZW5): below the threshold; pKd (MAGI1_2, Q96QZ7): below the threshold
QSPANIYYKV [EFNB1, P52799]	below the threshold	below the threshold	below the threshold	below the threshold	below the threshold	below the threshold	below the threshold	below the threshold	below the threshold	below the threshold	below the threshold	below the threshold	4.05	below the threshold	below the threshold	below the threshold	below the threshold	below the threshold	below the threshold	below the threshold	pKd (LIN7A, O14910): below the threshold; pKd (AHNAK1, Q09666): below the threshold; pKd (SCRIB_3, Q14160): below the threshold; pKd (TJP2_1, Q9UDY2): below the threshold; pKd (GORASP2, Q9H8Y8): 5.16; pKd (TJP1_2, Q07157): below the threshold; pKd (MPP6, Q9NZW5): below the threshold; pKd (MAGI1_2, Q96QZ7): below the threshold
SAAKVLTSMC [GHRHR, Q02643]	below the threshold	4.12	3.6	below the threshold	below the threshold	4.32	3.63	below the threshold	below the threshold	below the threshold	below the threshold	below the threshold	3.71	below the threshold	4.21	3.89	below the threshold	below the threshold	below the threshold	below the threshold	pKd (LIN7A, O14910): below the threshold; pKd (AHNAK1, Q09666): below the threshold; pKd (SCRIB_3, Q14160): 3.61; pKd (TJP2_1, Q9UDY2): 3.6; pKd (GORASP2, Q9H8Y8): below the threshold; pKd (TJP1_2, Q07157): below the threshold; pKd (MPP6, Q9NZW5): below the threshold; pKd (MAGI1_2, Q96QZ7): below the threshold
